In publication PMC3064480:

How the values were obtained:
[1] = biological target: Recombinant human TβRI-ED (residues 1-101) (human); assay: ELISA
[2] = biological target: Recombinant human TβRII-ED (residues 1-137) (human); assay: ELISA
Sequence of Recombinant human TβRII-ED (residues 1-137) (human) (P37173 whole entry, the tested form may be a part): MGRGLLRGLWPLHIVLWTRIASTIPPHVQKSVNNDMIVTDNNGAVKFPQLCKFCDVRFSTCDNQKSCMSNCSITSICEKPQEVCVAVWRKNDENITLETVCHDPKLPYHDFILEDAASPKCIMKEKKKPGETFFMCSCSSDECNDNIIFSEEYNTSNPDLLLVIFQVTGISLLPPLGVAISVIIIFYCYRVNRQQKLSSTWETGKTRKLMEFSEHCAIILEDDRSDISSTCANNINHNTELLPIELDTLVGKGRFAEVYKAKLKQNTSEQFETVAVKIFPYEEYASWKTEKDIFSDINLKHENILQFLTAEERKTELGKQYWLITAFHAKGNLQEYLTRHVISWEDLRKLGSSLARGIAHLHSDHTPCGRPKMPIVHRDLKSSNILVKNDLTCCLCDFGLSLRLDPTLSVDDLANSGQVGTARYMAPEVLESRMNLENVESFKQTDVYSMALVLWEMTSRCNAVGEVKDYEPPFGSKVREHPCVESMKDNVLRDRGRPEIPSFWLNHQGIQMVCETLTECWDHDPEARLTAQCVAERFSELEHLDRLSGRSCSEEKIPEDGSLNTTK

MHRMPSFLPTTL [phage clone 2 (M13 phage displaying … on the N-terminus of the PIII protein)]
Kd [1]: 0.0001 µM

MHRMPSFLPTTL [Pep2 (synthetic peptide …)]
IC50 [2]: 274 µM | Kd [2]: 10 µM | IC50 [1]: 256 µM | Kd [1]: 10 µM

LTGKNFPMFHRN [Pep1 (synthetic peptide …)]
IC50 [2]: 156 µM | Kd [2]: 10 µM | IC50 [1]: 110 µM | Kd [1]: 10 µM

LTGKNFPMFHRN [phage clone 1 (M13 phage displaying … on the N-terminus of the PIII protein)]
Kd [1]: 0.0001 µM
